Data as given in IntAct's records for PubMed 17986610.

Key:
[1] = biological target: trcb_xenla fbxw1 (UniProt Q91854)
[2] = biological target: plk1_xenla plk1 (UniProt P70032)
Sequence of plk1_xenla plk1 (P70032 whole entry): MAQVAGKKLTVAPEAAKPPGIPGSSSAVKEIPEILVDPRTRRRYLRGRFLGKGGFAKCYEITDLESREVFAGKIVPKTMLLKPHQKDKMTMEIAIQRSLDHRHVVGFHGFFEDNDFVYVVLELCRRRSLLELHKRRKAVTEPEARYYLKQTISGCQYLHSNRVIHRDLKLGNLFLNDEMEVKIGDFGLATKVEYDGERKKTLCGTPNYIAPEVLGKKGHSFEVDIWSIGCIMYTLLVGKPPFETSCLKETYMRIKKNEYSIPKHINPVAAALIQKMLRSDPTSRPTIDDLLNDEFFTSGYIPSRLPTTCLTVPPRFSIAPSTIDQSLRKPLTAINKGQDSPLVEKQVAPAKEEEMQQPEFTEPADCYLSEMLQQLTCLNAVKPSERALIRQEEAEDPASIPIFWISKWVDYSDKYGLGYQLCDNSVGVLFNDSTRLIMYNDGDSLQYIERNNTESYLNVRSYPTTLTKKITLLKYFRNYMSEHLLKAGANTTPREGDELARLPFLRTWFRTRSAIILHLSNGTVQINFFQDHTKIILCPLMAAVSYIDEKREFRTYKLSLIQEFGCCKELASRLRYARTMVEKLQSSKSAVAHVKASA

Sequence of Cytoplasmic polyadenylation element-binding protein 1-A (Xenopus laevis (African clawed frog)), Q91572 G192A (Q91572 whole entry G192A): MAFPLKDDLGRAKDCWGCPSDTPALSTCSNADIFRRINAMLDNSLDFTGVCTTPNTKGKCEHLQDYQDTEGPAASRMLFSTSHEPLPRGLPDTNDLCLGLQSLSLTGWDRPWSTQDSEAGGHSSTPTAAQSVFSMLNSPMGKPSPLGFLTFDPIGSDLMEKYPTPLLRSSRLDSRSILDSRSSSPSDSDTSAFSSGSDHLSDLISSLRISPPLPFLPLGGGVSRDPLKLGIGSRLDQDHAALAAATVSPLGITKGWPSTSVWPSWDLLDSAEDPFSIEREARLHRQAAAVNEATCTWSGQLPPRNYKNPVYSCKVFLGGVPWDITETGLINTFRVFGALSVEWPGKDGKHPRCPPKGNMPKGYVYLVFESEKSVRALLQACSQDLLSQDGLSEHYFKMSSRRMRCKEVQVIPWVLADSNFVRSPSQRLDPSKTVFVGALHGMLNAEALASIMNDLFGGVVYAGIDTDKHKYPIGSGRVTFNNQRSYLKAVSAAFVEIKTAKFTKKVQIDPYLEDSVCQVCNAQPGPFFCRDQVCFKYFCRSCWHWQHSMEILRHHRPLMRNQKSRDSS
Sequence of trcb_xenla fbxw1 (Q91854 whole entry): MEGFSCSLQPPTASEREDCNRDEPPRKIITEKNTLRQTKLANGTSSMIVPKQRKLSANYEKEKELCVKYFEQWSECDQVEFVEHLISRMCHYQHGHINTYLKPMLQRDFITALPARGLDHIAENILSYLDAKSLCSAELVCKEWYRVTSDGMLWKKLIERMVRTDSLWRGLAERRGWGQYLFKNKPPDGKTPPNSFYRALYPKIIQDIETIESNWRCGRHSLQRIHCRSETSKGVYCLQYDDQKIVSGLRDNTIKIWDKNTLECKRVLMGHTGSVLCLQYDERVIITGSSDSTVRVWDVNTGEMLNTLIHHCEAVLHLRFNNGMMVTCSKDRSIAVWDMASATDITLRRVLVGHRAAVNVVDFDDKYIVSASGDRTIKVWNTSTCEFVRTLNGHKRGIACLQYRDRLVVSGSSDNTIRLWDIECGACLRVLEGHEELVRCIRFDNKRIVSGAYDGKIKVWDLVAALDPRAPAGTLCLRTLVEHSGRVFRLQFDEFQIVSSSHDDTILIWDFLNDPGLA
Sequence of Cytoplasmic polyadenylation element-binding protein 1-A (Xenopus laevis (African clawed frog)), Q91572 T125A (Q91572 whole entry T125A): as the sequence (Q91572 whole entry G192A) above, with T125A, A192G counted along it

| Substance | effect of a mutation on the interaction [1] | effect of a mutation on the interaction [2] |
| --- | --- | --- |
| Cytoplasmic polyadenylation element-binding protein 1-A (Xenopus laevis (African clawed frog)), Q91572 G192A | decreasing interaction |  |
| Cytoplasmic polyadenylation element-binding protein 1-A (Xenopus laevis (African clawed frog)), Q91572 T125A |  | decreasing interaction |
